Test [1] addresses T1, SARS-2 RBM^hg RBD construct (SARS-2 RBD with engineered glycans at 448, 475, 494 and 501) (SARS-CoV-2 (engineered), UniProt P0DTC2 319-529). Put plainly: BLI with recombinant Fabs, drawn table of KD (µM).
Test [2] has as its target T1, SARS-2 RBM^hg RBD construct (SARS-2 RBD …). Put plainly: BLI with recombinant Fabs, drawn table of KD (µM), column ΔRBM.

The values below come from patent publication US20250032605A1 (GENERAL HOSPITAL, published 2025).

Substitutions are numbered along the chain they refer to. Bounds are passed on as bounds.

Broadly, the Kd is a measure of binding affinity in units of concentration.

B1: Ab20 Fab (Fab, V domains shown)
VH: EVQLQQSGPELVKPGASVKISCKASGFSFTGYSMNWMKQSPEKSLEWIGEINPTTGGTTYNQKFKAKATLTVDKSSSTAYIQLKSLTSEDSAVYYCARGRADYWGQGTTLTVSS
VL: DIVLTQSPASLAVSLGQRATISCRASESVEYYGTGLVQWFQQKPGQPPKLLIYAASNVESGVPARFSGSGSGTDFSLNIHSVEEDDIAMYFCHQSRKLPWTFGGGTKLEIK
Consider B1, for which the Kd in test [1] and in test [2] was above 100 µM throughout.

B2: Ab19 Fab (Fab, V domains shown)
VH: QVQLQQSGAELARPGASVKLSCKASGYPFTSYGINWVKQRTGQGLEWIGEIYPRIGNTYYNEKFKGKATLTADKSSSTAYMEFRSLTSEDSAVYFCARSWNSNYGEYYFDYWGQGTTLTVS
VL: DIVMTQSHKFMSTSIGDRVSITCKASHDVSTAVAWYQQKPGQSPKLLIYWASTRHTGVPDRFTGSGSGTDYTLTIRSVQAEDLALYYCQQHYSTPYTFGGGTKLEIK
As to B2, the Kd in test [1] and in test [2] was above 100 µM each time.

B3: Ab15 Fab (Fab, V domains shown)
VH: EVQLQQSGPELVKPGASVKISCKASGYSFTGYYMNWVKQSPEKSLEWIGEINPNFGGTTYNQKFKAKATLTVDKSSSTAYMQLKSLTSEDSAVYYCARYYGNLYAMDYWGQGTSVTVS
VL: DILMTQSPSSMSVSLGDTVSITCHASQGISSNIGWLQQKPGKSFKGLIYHGTNLEDGVPSRFSGSGSGAAYSLTISSLESEDFADYYCVQYTHFPYTFGGGTKLEIK
For B3, the equilibrium dissociation constant (Kd) in test [1] and in test [2] was 1.3 µM each time.

B4: Ab17 Fab (Fab, V domains shown)
VH: EVQLQQSGPELVKPGASVKISCKASGYSFTDYYMNWVKQSPEKSLEWIGEINPNTGGTTYNQKFKAKATLTVDKSSSTAYMQLKSLTSEDSAVYYCARYYGNLYAMDYWGQGTSVTVSS
VL: B3 VL with A70D, T92V, H93Q, F98L
With B4, the Kd in test [1] was 0.1 µM.

B5: Ab16 Fab (Fab, V domains shown)
VH: B3 VH with T30N, G31N, F55S, G57Y, T59S, K65R, S77T, Y100F, Y104F, Y108F
VL: B3 VL with S30G, H50L, A70D, T92V, H93Q
For the molecule B5, the Kd in test [1] worked out at 0.16 µM.
